tested on: Escherichia coli TOP10; experiment: shrunken log2 fold change of peptide-encoding DNA abundance (4.5 h post-induction vs induction); higher = less antimicrobial activity (less host growth inhibition); conditions: time post-induction: 4.5 h; library: site-saturation at positions 5, 18, 19, 20
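Note: peptides expressed intracellularly from a pBAD plasmid library in pooled LB shake-flask culture, induced with 0.3% L-arabinose, DNA abundance read by NGS, three biological replicates, DESeq2 with apeglm shrinkage.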

| Sequence | shrunken log2 fold change |
| --- | --- |
| RRIRNRPPRLPRPRPRPQKIPRP | -0.22 |
| RRIRQRPPRLPRPRPRPGDYPRP | -0.17 |
| RRIRVRPPRLPRPRPRPWDTPRP | 0.00866 |
| RRIRGRPPRLPRPRPRPFHSPRP | -0.155 |
| RRIRIRPPRLPRPRPRPAAVPRP | -0.181 |
| RRIRDRPPRLPRPRPRPQHIPRP | -0.762 |
| RRIRPRPPRLPRPRPRPFYDPRP | -0.138 |
| RRIRGRPPRLPRPRPRPYWDPRP | -0.26 |
| RRIRMRPPRLPRPRPRPFLTPRP | 0.0674 |
| RRIRRRPPRLPRPRPRPPTIPRP | 0.324 |
| RRIRHRPPRLPRPRPRPLIEPRP | -0.106 |
| RRIRLRPPRLPRPRPRPDMGPRP | 0.0446 |
| RRIRMRPPRLPRPRPRPLQRPRP | 0.0735 |
| RRIRDRPPRLPRPRPRPDMYPRP | 0.214 |
| RRIRIRPPRLPRPRPRPNTSPRP | -0.639 |
| RRIRARPPRLPRPRPRPTHQPRP | 0.528 |
| RRIRGRPPRLPRPRPRPGFEPRP | 0.813 |
| RRIRARPPRLPRPRPRPPQVPRP | 0.162 |
| RRIRYRPPRLPRPRPRPNQWPRP | 0.00192 |
| RRIRYRPPRLPRPRPRPPKDPRP | 0.0611 |
| RRIRPRPPRLPRPRPRPPYGPRP | -0.268 |
| RRIRGRPPRLPRPRPRPQVGPRP | 0.395 |
| RRIRQRPPRLPRPRPRPVYYPRP | 0.0771 |
| RRIRLRPPRLPRPRPRPFSQPRP | -0.0811 |
| RRIRARPPRLPRPRPRPFPHPRP | 0.146 |

| Sequence | shrunken log2 fold change |
| --- | --- |
| RRIRYRPPRLPRPRPRPAVVPRP | -0.149 |
| RRIRMRPPRLPRPRPRPGIMPRP | 0.246 |
| RRIRDRPPRLPRPRPRPKGPPRP | -0.0184 |
| RRIRTRPPRLPRPRPRPCMHPRP | -0.0639 |
| RRIRGRPPRLPRPRPRPVGVPRP | 1.08 |
| RRIRHRPPRLPRPRPRPNGKPRP | -0.335 |
| RRIRKRPPRLPRPRPRPSACPRP | -0.0843 |
| RRIRHRPPRLPRPRPRPGQIPRP | -0.00195 |
| RRIRTRPPRLPRPRPRPIKMPRP | -0.0667 |
| RRIRERPPRLPRPRPRPEDCPRP | -0.104 |
| RRIRVRPPRLPRPRPRPHFAPRP | 0.0941 |
| RRIRCRPPRLPRPRPRPCVPPRP | -0.49 |
| RRIRSRPPRLPRPRPRPKTLPRP | 2.07 |
| RRIRWRPPRLPRPRPRPVYSPRP | -0.104 |
| RRIRVRPPRLPRPRPRPWWEPRP | 0.161 |
| RRIRGRPPRLPRPRPRPVELPRP | 0.354 |
| RRIRHRPPRLPRPRPRPTDQPRP | -0.00155 |
| RRIRIRPPRLPRPRPRPESVPRP | -0.00682 |
| RRIRRRPPRLPRPRPRPRFPPRP | 0.676 |
| RRIRKRPPRLPRPRPRPRQAPRP | 1.79 |
| RRIRCRPPRLPRPRPRPNFFPRP | 0.0889 |
| RRIRARPPRLPRPRPRPPKRPRP | 0.485 |
| RRIRMRPPRLPRPRPRPGGLPRP | 0.818 |
| RRIRRRPPRLPRPRPRPKHTPRP | 0.32 |
| RRIRYRPPRLPRPRPRPEHHPRP | -0.646 |

| Sequence | shrunken log2 fold change |
| --- | --- |
| RRIRYRPPRLPRPRPRPGNKPRP | -0.292 |
| RRIRRRPPRLPRPRPRPGPVPRP | 0.332 |
| RRIRCRPPRLPRPRPRPVINPRP | -0.116 |
| RRIRPRPPRLPRPRPRPKVYPRP | -0.292 |
| RRIRVRPPRLPRPRPRPLTSPRP | 0.0775 |
| RRIRQRPPRLPRPRPRPCEWPRP | 0.000996 |
| RRIRPRPPRLPRPRPRPIICPRP | -0.188 |
| RRIRQRPPRLPRPRPRPYGWPRP | -0.112 |
| RRIRHRPPRLPRPRPRPPVMPRP | -0.0747 |
| RRIRTRPPRLPRPRPRPPGAPRP | 0.995 |
| RRIRGRPPRLPRPRPRPIHHPRP | -0.0166 |
| RRIRHRPPRLPRPRPRPCFKPRP | -1.25 |
| RRIRYRPPRLPRPRPRPLSTPRP | -0.29 |
| RRIRWRPPRLPRPRPRPLRWPRP | 1.08 |
| RRIRGRPPRLPRPRPRPLRSPRP | 1.67 |
| RRIRKRPPRLPRPRPRPEAGPRP | 1.17 |
| RRIRCRPPRLPRPRPRPAHTPRP | -0.0293 |
| RRIRNRPPRLPRPRPRPFIGPRP | -0.0677 |
| RRIRVRPPRLPRPRPRPVLPPRP | 0.0268 |
| RRIRHRPPRLPRPRPRPAYHPRP | -0.274 |
| RRIRGRPPRLPRPRPRPCHFPRP | 0.0576 |
| RRIRTRPPRLPRPRPRPCGVPRP | -0.175 |
| RRIRTRPPRLPRPRPRPPKHPRP | 0.157 |
| RRIRNRPPRLPRPRPRPKRLPRP | -0.0121 |
| RRIRQRPPRLPRPRPRPCIEPRP | 0.015 |

| Sequence | shrunken log2 fold change |
| --- | --- |
| RRIRDRPPRLPRPRPRPKANPRP | 0.091 |
| RRIRRRPPRLPRPRPRPWWYPRP | -0.303 |
| RRIRERPPRLPRPRPRPDCNPRP | -0.395 |
| RRIRYRPPRLPRPRPRPNQEPRP | 0.000655 |
| RRIRMRPPRLPRPRPRPHSCPRP | 0.0321 |
| RRIRFRPPRLPRPRPRPFWCPRP | -0.27 |
| RRIRWRPPRLPRPRPRPVKEPRP | -0.0992 |
| RRIRCRPPRLPRPRPRPDPCPRP | -0.039 |
| RRIRFRPPRLPRPRPRPPDNPRP | -0.115 |
| RRIRWRPPRLPRPRPRPTNWPRP | 0.206 |
| RRIRFRPPRLPRPRPRPIIRPRP | -0.014 |
| RRIRKRPPRLPRPRPRPEENPRP | -0.00213 |
| RRIRRRPPRLPRPRPRPCQCPRP | 0.0262 |
| RRIRLRPPRLPRPRPRPANMPRP | -0.0319 |
| RRIRARPPRLPRPRPRPMKGPRP | -0.132 |
| RRIRDRPPRLPRPRPRPMWGPRP | -0.0471 |
| RRIRRRPPRLPRPRPRPIHFPRP | -0.174 |
| RRIRIRPPRLPRPRPRPKHPPRP | -0.0675 |
| RRIRRRPPRLPRPRPRPVVLPRP | -0.0732 |
| RRIRKRPPRLPRPRPRPDDHPRP | 0.0199 |
| RRIRYRPPRLPRPRPRPAATPRP | 0.208 |
| RRIRWRPPRLPRPRPRPCWWPRP | 0.22 |
| RRIRWRPPRLPRPRPRPKWSPRP | 0.272 |
| RRIRPRPPRLPRPRPRPIVVPRP | -0.134 |
| RRIRARPPRLPRPRPRPLQFPRP | 0.0375 |

| Sequence | shrunken log2 fold change |
| --- | --- |
| RRIRNRPPRLPRPRPRPLNCPRP | -0.415 |
| RRIRARPPRLPRPRPRPGKDPRP | 0.36 |
| RRIRDRPPRLPRPRPRPKELPRP | 0.0843 |
| RRIRGRPPRLPRPRPRPRDPPRP | 1.32 |
| RRIRRRPPRLPRPRPRPHKEPRP | 0.0317 |
| RRIRKRPPRLPRPRPRPQQGPRP | 0.23 |
| RRIRPRPPRLPRPRPRPIYSPRP | -0.225 |
| RRIRHRPPRLPRPRPRPSILPRP | -0.464 |
| RRIRRRPPRLPRPRPRPTDQPRP | 0.552 |
| RRIRDRPPRLPRPRPRPGAFPRP | 0.357 |
| RRIRVRPPRLPRPRPRPVSMPRP | -0.066 |
| RRIRERPPRLPRPRPRPEWYPRP | 0.0172 |
| RRIRMRPPRLPRPRPRPQIQPRP | -0.0708 |
| RRIRVRPPRLPRPRPRPLWLPRP | -0.00434 |
| RRIRVRPPRLPRPRPRPRAVPRP | 0.314 |
| RRIRRRPPRLPRPRPRPKDLPRP | -0.0233 |
| RRIRPRPPRLPRPRPRPRNTPRP | 1.19 |
| RRIRARPPRLPRPRPRPCWPPRP | 0.162 |
| RRIRPRPPRLPRPRPRPEIDPRP | -0.0829 |
| RRIRCRPPRLPRPRPRPHWKPRP | -0.126 |
| RRIRQRPPRLPRPRPRPMYKPRP | -0.0194 |
| RRIRVRPPRLPRPRPRPWPCPRP | -0.22 |
| RRIRGRPPRLPRPRPRPPAEPRP | 1.64 |
| RRIRKRPPRLPRPRPRPPISPRP | 0.22 |
| RRIRTRPPRLPRPRPRPGMAPRP | -0.0805 |

| Sequence | shrunken log2 fold change |
| --- | --- |
| RRIRYRPPRLPRPRPRPRWPPRP | 0.498 |
| RRIRWRPPRLPRPRPRPVHTPRP | 0.627 |
| RRIRVRPPRLPRPRPRPWPYPRP | -0.197 |
| RRIRCRPPRLPRPRPRPDYHPRP | -0.903 |
| RRIRNRPPRLPRPRPRPGMIPRP | 0.00966 |
| RRIRFRPPRLPRPRPRPNLKPRP | -0.553 |
| RRIRIRPPRLPRPRPRPVCTPRP | -0.159 |
| RRIRKRPPRLPRPRPRPWNNPRP | 0.0165 |
| RRIRTRPPRLPRPRPRPLPVPRP | -0.103 |
| RRIRRRPPRLPRPRPRPPGQPRP | 0.422 |
| RRIRFRPPRLPRPRPRPQRHPRP | -0.0437 |
| RRIRVRPPRLPRPRPRPPQLPRP | 0.0208 |
| RRIRLRPPRLPRPRPRPFGNPRP | -0.498 |
| RRIRFRPPRLPRPRPRPHIAPRP | -0.532 |
| RRIRERPPRLPRPRPRPTSQPRP | -0.235 |
| RRIRIRPPRLPRPRPRPVCEPRP | 0.0639 |
| RRIRWRPPRLPRPRPRPIPLPRP | -0.121 |
| RRIRGRPPRLPRPRPRPVCTPRP | 0.73 |
| RRIRQRPPRLPRPRPRPHVIPRP | -0.186 |
| RRIRNRPPRLPRPRPRPSVTPRP | 0.0789 |
| RRIRVRPPRLPRPRPRPTGRPRP | 0.274 |
| RRIRNRPPRLPRPRPRPSRTPRP | 0.0867 |
| RRIRWRPPRLPRPRPRPWRPPRP | 0.178 |
| RRIRFRPPRLPRPRPRPFDVPRP | -0.247 |
| RRIRCRPPRLPRPRPRPCQWPRP | -0.00783 |
